Tests used:
[1] = target: control discoidal lipid bilayer-membrane scaffold protein complex without GPCR1 (empty complex); experiment: Octet assay; biotinylated empty complex captured on streptavidin through the Bir-A tag of the membrane scaffold protein (FIG. 1B)
[2] = target: discoidal lipid bilayer-membrane scaffold protein complex including GPCR1 transmembrane protein (human); experiment: Octet assay; biotinylated complex with GPCR1 captured on streptavidin through the Bir-A tag of the membrane scaffold protein (FIG. 1B)

For “streptavidin tethered to plates (from UniProt P22629 37-163)”, which Octet response [1] is on record?
Its Octet response is 0.69 nm.

What about the Octet response [2] of the same substance?
Its Octet response is 3 nm.

Source: patent publication US20250313624A1
